Test results reported in the supplement of paper PMC6757056.
± gives the standard deviation of the averaged measurements.

B1: library; a variant is named by its letters at N, in order (parent)
chain: GCUGUCACCGGUGCUUGGUACGUUAUAUUCAGCCGGUCUGAUGAGUCUNNNNNNAGACGAAACAGC

Legend:
(6R,S)-folinic acid [1] = variants of: B1; assay: FACS-Seq fitted mean relative fluorescence mCherry/BFP without ligand (log10 relative fluorescence); HEK293T overexpressing SLC46A1; higher = higher reporter protein expression; details: without (6R,S)-folinic acid; ligand present: no
Procedure: (§1)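 Hammerhead (sTRSV) ribozyme switch libraries with a ligand aptamer grafted on stem I and a randomized N4-6 loop II, cloned into the 3' UTR of mCherry and transiently transfected into HEK293T cells; RNA-Seq 72 h post transfection with ligand added 1 h before transfection; RNA read count / plasmid DNA read count normalized to the non-cleaving sTRSVctl (x100), log10; sequences with >100 DNA reads. FACS-Seq: lentiviral library sorted into 6 bins after 48 h ligand, log-normal fit mean of mCherry/BFP scaled to controls. Printed sequences are partial switch sequences.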

(6R,S)-folinic acid [2] = variants of: B1; assay: normalized RNA/DNA level without ligand (relative to sTRSVctl = 100) (log10 (% of sTRSVctl)); HEK293T overexpressing SLC46A1; higher = less ribozyme self-cleavage, higher mRNA level; details: without (6R,S)-folinic acid; ligand present: no
Procedure: as §1

(6R,S)-folinic acid [3] = variants of: B1; assay: FACS-Seq fitted mean relative fluorescence mCherry/BFP with ligand (log10 relative fluorescence); HEK293T overexpressing SLC46A1; ligand concentration (+) FACS-Seq: 6 mM; higher = higher reporter protein expression; details: with (6R,S)-folinic acid; ligand present: yes
Procedure: as §1

(6R,S)-folinic acid [4] = variants of: B1; assay: normalized RNA/DNA level with ligand (relative to sTRSVctl = 100) (log10 (% of sTRSVctl)); HEK293T overexpressing SLC46A1; ligand concentration (+) RNA-Seq: 6 mM; higher = less ribozyme self-cleavage, higher mRNA level; details: with (6R,S)-folinic acid; ligand present: yes
Procedure: as §1

## GCUGUCACCGGUGCUUGGUACGUUAUAUUCAGCCGGUCUGAUGAGUCUGAACCUAGACGAAACAGC [GAACCU]
(6R,S)-folinic acid [1]
  FACS-Seq fitted mean (log10): -0.507 ± 0.14
(6R,S)-folinic acid [2]
  normalized RNA/DNA level without ligand (log10): 2.02 ± 0.0076
(6R,S)-folinic acid [3]
  FACS-Seq fitted mean (log10): -0.0321 ± 0.22
(6R,S)-folinic acid [4]
  normalized RNA/DNA level with ligand (log10): 2.02 ± 0.04

## GCUGUCACCGGUGCUUGGUACGUUAUAUUCAGCCGGUCUGAUGAGUCUGAACGAAGACGAAACAGC [GAACGA]
(6R,S)-folinic acid [1]
  FACS-Seq fitted mean (log10): 0.313 ± 0.13
(6R,S)-folinic acid [2]
  normalized RNA/DNA level without ligand (log10): 1.997 ± 0.012
(6R,S)-folinic acid [3]
  FACS-Seq fitted mean (log10): 0.623 ± 0.36
(6R,S)-folinic acid [4]
  normalized RNA/DNA level with ligand (log10): 2.031 ± 0.02

## GCUGUCACCGGUGCUUGGUACGUUAUAUUCAGCCGGUCUGAUGAGUCUGAACGGAGACGAAACAGC [GAACGG]
(6R,S)-folinic acid [1]
  FACS-Seq fitted mean (log10): 0.0676 ± 0.01
(6R,S)-folinic acid [2]
  normalized RNA/DNA level without ligand (log10): 1.94 ± 0.032
(6R,S)-folinic acid [3]
  FACS-Seq fitted mean (log10): 0.104 ± 0.12
(6R,S)-folinic acid [4]
  normalized RNA/DNA level with ligand (log10): 2.018 ± 0.019

## GCUGUCACCGGUGCUUGGUACGUUAUAUUCAGCCGGUCUGAUGAGUCUGAACGCAGACGAAACAGC [GAACGC]
(6R,S)-folinic acid [1]
  FACS-Seq fitted mean (log10): 0.22 ± 0.11
(6R,S)-folinic acid [2]
  normalized RNA/DNA level without ligand (log10): 1.946 ± 0.0053
(6R,S)-folinic acid [3]
  FACS-Seq fitted mean (log10): 0.118 ± 0.03
(6R,S)-folinic acid [4]
  normalized RNA/DNA level with ligand (log10): 1.99 ± 0.022

## GCUGUCACCGGUGCUUGGUACGUUAUAUUCAGCCGGUCUGAUGAGUCUAAACCAAGACGAAACAGC [AAACCA]
(6R,S)-folinic acid [1]
  FACS-Seq fitted mean (log10): 0.226 ± 0.23
(6R,S)-folinic acid [2]
  normalized RNA/DNA level without ligand (log10): 2 ± 0.01
(6R,S)-folinic acid [3]
  FACS-Seq fitted mean (log10): 0.0655 ± 0.071
(6R,S)-folinic acid [4]
  normalized RNA/DNA level with ligand (log10): 2 ± 0.03

## GCUGUCACCGGUGCUUGGUACGUUAUAUUCAGCCGGUCUGAUGAGUCUCAACGAAGACGAAACAGC [CAACGA]
(6R,S)-folinic acid [1]
  FACS-Seq fitted mean (log10): 0.682 ± 0.03
(6R,S)-folinic acid [2]
  normalized RNA/DNA level without ligand (log10): 2.008 ± 0.0085
(6R,S)-folinic acid [3]
  FACS-Seq fitted mean (log10): 0.653 ± 0.17
(6R,S)-folinic acid [4]
  normalized RNA/DNA level with ligand (log10): 2.005 ± 0.018

## GCUGUCACCGGUGCUUGGUACGUUAUAUUCAGCCGGUCUGAUGAGUCUUAACCGAGACGAAACAGC [UAACCG]
(6R,S)-folinic acid [1]
  FACS-Seq fitted mean (log10): 0.215 ± 0.047
(6R,S)-folinic acid [2]
  normalized RNA/DNA level without ligand (log10): 1.8952 ± 0.00059
(6R,S)-folinic acid [3]
  FACS-Seq fitted mean (log10): 0.522 ± 0.21
(6R,S)-folinic acid [4]
  normalized RNA/DNA level with ligand (log10): 2.01 ± 0.028

## GCUGUCACCGGUGCUUGGUACGUUAUAUUCAGCCGGUCUGAUGAGUCUUAACCAAGACGAAACAGC [UAACCA]
(6R,S)-folinic acid [1]
  FACS-Seq fitted mean (log10): 0.441 ± 0.11
(6R,S)-folinic acid [2]
  normalized RNA/DNA level without ligand (log10): 2.007 ± 0.0037
(6R,S)-folinic acid [3]
  FACS-Seq fitted mean (log10): 0.274 ± 0.073
(6R,S)-folinic acid [4]
  normalized RNA/DNA level with ligand (log10): 1.98 ± 0.0045

## GCUGUCACCGGUGCUUGGUACGUUAUAUUCAGCCGGUCUGAUGAGUCUAAACGAAGACGAAACAGC [AAACGA]
(6R,S)-folinic acid [1]
  FACS-Seq fitted mean (log10): 0.186 ± 0.039
(6R,S)-folinic acid [2]
  normalized RNA/DNA level without ligand (log10): 2 ± 0.018
(6R,S)-folinic acid [3]
  FACS-Seq fitted mean (log10): 0.192 ± 0.16
(6R,S)-folinic acid [4]
  normalized RNA/DNA level with ligand (log10): 2.03 ± 0.026

## GCUGUCACCGGUGCUUGGUACGUUAUAUUCAGCCGGUCUGAUGAGUCUUAACGCAGACGAAACAGC [UAACGC]
(6R,S)-folinic acid [1]
  FACS-Seq fitted mean (log10): 0.334 ± 0.0089
(6R,S)-folinic acid [2]
  normalized RNA/DNA level without ligand (log10): 1.993 ± 0.008
(6R,S)-folinic acid [3]
  FACS-Seq fitted mean (log10): 0.0549 ± 0.066
(6R,S)-folinic acid [4]
  normalized RNA/DNA level with ligand (log10): 2.02 ± 0.045

## GCUGUCACCGGUGCUUGGUACGUUAUAUUCAGCCGGUCUGAUGAGUCUUAACGAAGACGAAACAGC [UAACGA]
(6R,S)-folinic acid [1]
  FACS-Seq fitted mean (log10): 0.256 ± 0.05
(6R,S)-folinic acid [2]
  normalized RNA/DNA level without ligand (log10): 1.93 ± 0.0022
(6R,S)-folinic acid [3]
  FACS-Seq fitted mean (log10): 0.34 ± 0.11
(6R,S)-folinic acid [4]
  normalized RNA/DNA level with ligand (log10): 2.01 ± 0.036
